Measured values as given in patent US20250027068.

Molecular target: pooled human IgG (human IgG1,2,3 and 4)

| Protein | Enzyme Activity Endpoint Assay: Fab′2 [ng/µL] | Enzyme Activity Endpoint Assay: Fc [ng/µL] | Enzyme Activity Endpoint Assay: IgG [ng/µL] | Enzyme Activity Endpoint Assay: scIgG [ng/µL] | Enzyme Activity Endpoint Assay (purified): Fab'2 [ng/µL] | Enzyme Activity Endpoint Assay (purified): Fc [ng/µL] | Enzyme Activity Endpoint Assay (purified): IgG [ng/µL] | Enzyme Activity Endpoint Assay (purified): scIgG [ng/µL] |
| --- | --- | --- | --- | --- | --- | --- | --- | --- |
| PRT-316 (protein) MTITSVWTKGVTPPTPEDFRKNNEDVLHAPYVANQGWYDITKTFDGKDNLLCGAATAGNMLHWWFDQNKEEIERYLKKHPEKQKIIFNNQELFDVKAAIDTKDSQTNSKLFNYFRDKAFPNLSARQLGVMPDLVLDMFINGYYLNLGKTQSTDVNRPYQDKDKRGGIFDAVFTRGDQTTLLTARHDLKNKGLNEISDLIKQELTEGKALALSHTYANVRINHVINLWGADFDAEGNLIAIYVTDSDANASIGMKKYFVGRNANGKVAISAKKIEGDNIGAQVLGLFTLSTGQDIWQKLS | 772 | 347 | 80 | 0 |  |  |  |  |
| PRT-324 (protein) MTITSVWTKGVTPPTPEDFRENNEDVLHAPYVANQGWYDITKTFDGKDNLLCGAATAGNMLHWWFDQNKEEIERYLKKHPEKQKIIFGNQELFDVKAAIDTKDSQTNSKLFNYFRDKAFPNLSARQLGVMPDLVLDMFINGYYLNLGKTQSTDVNRPYQDKDKRGGIFDAVFTRGDQTTLLTARHDLKNKGLNEISDLIKQELTEGKALALSHTYANVRINHVINLWGADFDAEGNLIAIYVTDSDANPSIGMKKYFVGRNANGKVAISAKKIEGDNIGAQVLGLFTLSTGQDIWQKLS | 665 | 291 | 0 | 0 |  |  |  |  |
| PRT-332 (protein) MTITSVWTKGVTPPTPEDFRENNEDVLHAPYVANQGWYDITKTFDGKDNLLCGAATAGNMLHWWFDQNKEEIERYLKKHPEKQKIIFNNQEWFDVKAAIDTKDSQTNSKLFNYFRDKAFPGLSARQLGVFPDLVLDMFINGYYLNLPKTQSTDVNRPYQDKDKRGGIFDAVFTRGVQTTLLTARHDLKNKGLNEISDLIKQELTEGKALALSHTYANVRINHVINLWGADFDAEGNLIAIYVTDSDANASIGMKKYAVGVNANGKVAISAKKIEGDNIGAQVLGLFTLSTGQDIWQKLS | 409 | 277 | 0 | 177 |  |  |  |  |
| PRT-293 (protein) MVTSVWTKGVTPPADFTQGEDVFHAPYVANQGWYDITKTFNGKDDLLCGAATAGNMLHWWFDQNKEYIEAYLKKHPEKQKIMFGDQELLDVRKAINTKGSQKNSELFNYFRDKAFPNLSARRLGVMPDLVLDMFINGYYLNVTKTQTTDVNRTYQEKDKRGGIFDAVFTRGDQSKLLTSRHDFKEKGLKEISDLIKQELTEGKALGLSHTYANVRLNHVINLWGADFDSDGNLKAIYVTDSDSNASIGMKKYGVGVNSAGKVAISAKEIKEDNIGAQVLGLFTLSTGQDIWNQTN | 11 | 0 | 1260 | 0 |  |  |  |  |
| PRT-301 (protein) MVTSVWTKGVTPPTDFIKGEDVFHAPYDAGQGWYDITKTFNGKDDLLCGAATAGNMLHWWFDQNKEYIEAYLKKHPEKQKIMFGDQELLDVRKAINTKGSQKNSELFNYFRDKAFPNLSARRLGVMPDLVLDMFINGYYLNVTKTQTTDVNRTYQEKDKRGGIFDAVFTRGDQSKLLTSRHDFKEKGLKEISDLIKQELTEGKALGLSHTYANVRISHVINLWGADFDSDGNLKAIYVTDSDSNASIGMKKYFVGVNSAGKVAISAKEIKEDNIGAQVLGLFTLSTGQDIWNQTN | 0 | 0 | 1680 | 0 |  |  |  |  |
| PRT-309 (protein) MQITSVWTKGVTPLTPEQFRENNEDVIHAPYLAHQGWYDITKAFDGKDNLLCGAATAGNMLHWWFDQNKTEIEAYLSKHPEKQKIIFGNQELFDLKAAIDTKDSQTNSQLFDYFRDKAFPNLSARQLGVMPDLVLDMFINGYYLNVGKTQSTDVNRPYQDKDKRGGIFDAVFTRGDQTTLLTARHDLKNKGLNDISTIIKQELTEGRALALSHTYANVSISHVINLWGADFDAEGNLEAIYVTDSDANASIGMKKYFVGRNAHGHVAISAKKIEGENIGAQVLGLFTLSSGKDQWQKLS | 0 | 0 | 1650 | 0 |  |  |  |  |
| PRT-317 (protein) MTITSVWTKGVTPPTPEDFRENNEDVLHAPYVANQGWYDITKTFDGKDNLLCGAATAGNMLHWWFDQNKEEIERYLKKHPEKQKIIFNNQELFDVKAAIDTKDSQTNSKLFNYFRDKAFPNLSARQLGVMPDLVLDMFINGYYLNLGKTQSTDVNRPYQDKDKRGGIFDAVFTRGDQTTLLTARHDLKNKGLNEISDLIKQELTEGKALALSHTYANVRINHVINLWGADFDAEGNLIAIYVTDSDANASIGMKKYFVGRNANGKVAISAKKIEGDNIGAQVLGLFTLSLGQDIWQKLS | 798 | 453 | 0 | 0 |  |  |  |  |
| PRT-325 (protein) MTITSVWTKGVTPPTPEDFRENNEDVLHAPYVANQGWYDITKTFDGKDNLLCGAATAGNMLHWWFDQNKEEIERYLKKHPEKQKIIFGNQELFDVKAAIDTKDSQTNSKLFDYFRDKAFPNLSARQLGVMPDLVLDMFINGYYLNLGKTQSTDVNRPYQDKDKRGGIFDAVFTRGDQTTLLTARHDLKNKGLNEISDLIKQELTEGKALALSHTYANVRINHVINLWGADFDAEGELIAIYVTDSDANPSIGMKKYFVGRNANGKVAISAKKIEGDNIGAQVLGLFTLSTGQDIWQKLS |  |  |  |  | 930 | 466 | 78 | 0 |
| PRT-333 (protein) MTITSVWTKGVTPPTPEDFRENNEDVLHAPYVANQGWYDITKTFDGKDNLLCGAATAGNMLHWWFDQNKEEIERYLKKHPEKQKIIFGNQELFDVKAAIDTKDSQTNSKLFNYFRDKAFPGLSARQLGVFPDLVLDMFINGYYLNLGKTQSTDVNRPYQDKDKRGGIFDAVFTRGVQTTLLTARHDLKNKGLNEISDLIKQELTEGKALALSHTYANVRINHVINLWGADFDAEGNLIAIYVTDSDANPSIGMKKYFVGRNANGKVAISAKKIEGDNIGAQVLGLFTLSTGQDIWQKLS |  |  |  |  | 794 | 448 | 0 | 0 |
| PRT-294 (protein) MVTSVWTKGVTPPADFTQGEDVFHAPYDANQGWYDITKTFNGKDDLLCGAATAGNMLHWWFDQNKEYIEAYLKKHPEKQKIMFGDQELLDVRKAINTKGSQKNSELFNYFRDKAFPNLSARRLGVMPDLVLDMFINGYYLNVTKTQTTDVNRTYQEKDKRGGIFDAVFTRGDQSKLLTSRHDFKEKGLKEISDLIKQELTEGKALGLSHTYANVRISHVINLWGADFDSDGNLKAIYVTDSDSNASIGMKKYGVGVNSAGKVAISAKEIKEDNIGAQVLGLFTLSTGQDIWNQTN |  |  |  |  | 651 | 456 | 506 | 5 |
| PRT-302 (protein) MVTSVWTKGVTPPTDFIKGEDVFHAPYKAGQGWYDITKTFNGKDDLLCGAATAGNMLHWWFDQNKEYIEAYLKKHPEKQKIMFGDQELLDVRKAINTKGSQKNSELFNYFRDKAFPNLSARRLGVMPDLVLDMFINGYYLNVTKTQTTDVNRTYQEKDKRGGIFDAVFTRGDQSKLLTSRHDFKEKGLKEISDLIKQELTEGKALGLSHTYANVRLNHVINLWGADFDSDGNLKAIYVTDSDSNASIGMKKYGVGVNSAGKVAISAKEIKEDNIGAQVLGLFTLSTGQDIWNQTN |  |  |  |  | 1130 | 461 | 0 | 0 |
| PRT-310 (protein) MQITSVWTKGVTPLTPEQFRENNEDVIHAPYLAHQGWYDITKAFDGKDNLLCGAATAGNMLHWWFDQNKTEIEAYLSKHPEKQKIIFNNQELFDLKAAIDTKDSQTNSQLFDYFRDKAFPNLSARQLGVMPDLVLDMFINGYYLNVFKTQSTDVNRPYQDKDKRGGIFDAVFTRGDQTTLLTARHDLKNKGLNDISTIIKQELTEGRALALSHTYANVSISHVINLWGADFDAEGNLEAIYVTDSDANASIGMKKYFVGRNAHGHVAISAKKIEGENIGAQVLGLFTLSSGKDQWQKLS |  |  |  |  | 1220 | 488 | 0 | 0 |
| PRT-318 (protein) MTITSVWTKGVTPPTPEDFRYNNEDVLHAPYVANQGWYDITKTFDGKDNLLCGAATAGNMLHWWFDQNKEEIERYLKKHPEKQKIIFNNQEWFDVKAAIDTKDSQTNSKLFDYFRDKAFPNLSARQLGVMPDLVLDMFINGYYLNLGKTQSTDVNRPYQDKDKRGGIFDAVFTRGDQTTLLTARHDLKNKGLNEISDLIKQELTEGKALALSHTYANVRINHVINLWGADFDAEGNLIAIYVTDSDANASIGMKKYFVGVNANGKVAISAKKIEGDNIGAQVLGLFTLSLGQDIWQKLS |  |  |  |  | 641 | 365 | 110 | 100 |
| PRT-326 (protein) MTITSVWTKGVTPPTPEDFRENNEDVLHAPYVANQGWYDITKTFDGKDNLLCGAATAGNMLHWWFDQNKEEIERYLKKHPEKQKIIFGNQELFDVKAAIDTKDSQTNSKLFDYFRDKAFPNLSARQLGVMPDLVLDMFINGYYLNLGKTQSTDVNRPYQDKDKRGGIFDAVFTRGDQTTLLTARHDLKNKGLNEISDLIKQELTEGKALALSHTYANVRINHVINLWGADFDAEGELIAIYVTDSDANPSIGMKKYFVGRNANGKVAISAKKIEGDNIGAQVLGLFTLSTGQDQWQKLS |  |  |  |  | 588 | 429 | 458 | 0 |
